Measured values published in PMC5762779, “The peroxisomal AAA-ATPase Pex1/Pex6 unfolds substrates by processive threading” (Nature Communications, 2018).

T1: fluorescein labeled Pex5 (S. cerevisiae, UniProt P35056 1-612, fluorescein (FAM) on a GGGK peptide joined by sortase at the C-terminal LPETGG site)
T1 construct: Pex5, S. cerevisiae W303; after labelling the chain ends LPET-GGGK-FAM; also called Pex5-FAM; source: E. coli BL21*, purified (Ni-NTA, anti-FLAG, Superdex 200), labelled with sortase and GGGK-FAM peptide; not shown: His6, C-terminal, cleaved
T1 sequence (looked up): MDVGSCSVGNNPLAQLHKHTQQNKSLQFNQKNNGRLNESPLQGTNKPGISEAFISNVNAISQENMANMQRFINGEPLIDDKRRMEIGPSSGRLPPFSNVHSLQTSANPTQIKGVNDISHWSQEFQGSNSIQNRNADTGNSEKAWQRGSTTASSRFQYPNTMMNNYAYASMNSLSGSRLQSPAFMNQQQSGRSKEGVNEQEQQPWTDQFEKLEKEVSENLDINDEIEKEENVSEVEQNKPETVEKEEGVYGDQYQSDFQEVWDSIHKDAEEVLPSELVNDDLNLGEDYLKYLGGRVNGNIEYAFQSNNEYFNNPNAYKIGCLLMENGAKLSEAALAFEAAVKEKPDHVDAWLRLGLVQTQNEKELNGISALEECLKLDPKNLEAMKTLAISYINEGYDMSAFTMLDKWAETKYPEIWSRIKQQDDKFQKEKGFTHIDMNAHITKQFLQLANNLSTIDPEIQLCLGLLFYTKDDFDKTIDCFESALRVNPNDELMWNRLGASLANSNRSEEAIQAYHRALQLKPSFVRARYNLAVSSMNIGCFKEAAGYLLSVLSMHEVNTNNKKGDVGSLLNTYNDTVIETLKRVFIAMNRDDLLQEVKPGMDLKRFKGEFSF

T2: His-Pex6-FLAG (S. cerevisiae, UniProt P33760 1-1030)
T2 construct: Pex6, S. cerevisiae W303, purified individually; not shown: His, N-terminal, kept; FLAG, C-terminal, kept
T2 sequence (looked up): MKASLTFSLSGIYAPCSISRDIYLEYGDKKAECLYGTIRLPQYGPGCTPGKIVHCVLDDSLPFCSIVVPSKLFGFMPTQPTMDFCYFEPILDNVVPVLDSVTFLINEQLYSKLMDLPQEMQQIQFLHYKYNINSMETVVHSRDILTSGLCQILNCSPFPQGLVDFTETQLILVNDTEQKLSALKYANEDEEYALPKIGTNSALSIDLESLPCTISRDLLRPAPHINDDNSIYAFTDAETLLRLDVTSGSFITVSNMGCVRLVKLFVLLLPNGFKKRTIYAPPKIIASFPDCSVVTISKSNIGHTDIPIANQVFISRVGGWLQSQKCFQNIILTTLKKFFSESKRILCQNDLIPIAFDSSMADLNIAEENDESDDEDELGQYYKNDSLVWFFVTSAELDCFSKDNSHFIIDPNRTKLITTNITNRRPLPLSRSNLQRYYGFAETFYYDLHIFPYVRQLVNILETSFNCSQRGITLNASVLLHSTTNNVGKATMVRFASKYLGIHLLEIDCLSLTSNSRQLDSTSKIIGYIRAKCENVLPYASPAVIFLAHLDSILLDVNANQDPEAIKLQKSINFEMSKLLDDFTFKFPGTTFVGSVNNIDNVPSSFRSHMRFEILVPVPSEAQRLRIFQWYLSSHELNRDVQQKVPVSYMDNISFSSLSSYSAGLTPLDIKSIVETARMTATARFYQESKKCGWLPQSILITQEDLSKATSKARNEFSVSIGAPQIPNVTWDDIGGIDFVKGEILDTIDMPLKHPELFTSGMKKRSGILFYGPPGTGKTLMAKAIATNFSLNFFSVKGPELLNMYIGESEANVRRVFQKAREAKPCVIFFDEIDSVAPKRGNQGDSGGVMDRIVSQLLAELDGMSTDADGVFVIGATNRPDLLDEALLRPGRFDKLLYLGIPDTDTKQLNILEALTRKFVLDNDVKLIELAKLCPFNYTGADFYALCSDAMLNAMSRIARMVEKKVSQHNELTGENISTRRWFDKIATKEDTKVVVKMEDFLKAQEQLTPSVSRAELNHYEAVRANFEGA


Legend:
Conditions in all cases: both partners purified
[1] = molecular target: T3, Pex1-FLAG/His-Pex6 hexamer, wild type (S. cerevisiae, UniProt P24004 1-1043; P33760 1-1030); test: inhibition of ATPase activity (ATP/NADH coupled enzyme assay); apparent KD from the concentration-dependent inhibition of the ATPase activity of 5 nM Pex1/Pex6 by titrated Pex15; 5 mM ATP, 2 uM BSA; n = 3 technical replicates
T3 construct: Pex1, S. cerevisiae W303; Pex6, S. cerevisiae W303; Heterohexamer with alternating subunits; also called WT Pex1/Pex6; Pex1/Pex6; source: E. coli BL21*, co-expressed, purified (Ni-NTA, anti-FLAG, Superose6); copies: 3 + 3
T3 sequence (P24004 whole entry, chain 1 of 2, one chain of several): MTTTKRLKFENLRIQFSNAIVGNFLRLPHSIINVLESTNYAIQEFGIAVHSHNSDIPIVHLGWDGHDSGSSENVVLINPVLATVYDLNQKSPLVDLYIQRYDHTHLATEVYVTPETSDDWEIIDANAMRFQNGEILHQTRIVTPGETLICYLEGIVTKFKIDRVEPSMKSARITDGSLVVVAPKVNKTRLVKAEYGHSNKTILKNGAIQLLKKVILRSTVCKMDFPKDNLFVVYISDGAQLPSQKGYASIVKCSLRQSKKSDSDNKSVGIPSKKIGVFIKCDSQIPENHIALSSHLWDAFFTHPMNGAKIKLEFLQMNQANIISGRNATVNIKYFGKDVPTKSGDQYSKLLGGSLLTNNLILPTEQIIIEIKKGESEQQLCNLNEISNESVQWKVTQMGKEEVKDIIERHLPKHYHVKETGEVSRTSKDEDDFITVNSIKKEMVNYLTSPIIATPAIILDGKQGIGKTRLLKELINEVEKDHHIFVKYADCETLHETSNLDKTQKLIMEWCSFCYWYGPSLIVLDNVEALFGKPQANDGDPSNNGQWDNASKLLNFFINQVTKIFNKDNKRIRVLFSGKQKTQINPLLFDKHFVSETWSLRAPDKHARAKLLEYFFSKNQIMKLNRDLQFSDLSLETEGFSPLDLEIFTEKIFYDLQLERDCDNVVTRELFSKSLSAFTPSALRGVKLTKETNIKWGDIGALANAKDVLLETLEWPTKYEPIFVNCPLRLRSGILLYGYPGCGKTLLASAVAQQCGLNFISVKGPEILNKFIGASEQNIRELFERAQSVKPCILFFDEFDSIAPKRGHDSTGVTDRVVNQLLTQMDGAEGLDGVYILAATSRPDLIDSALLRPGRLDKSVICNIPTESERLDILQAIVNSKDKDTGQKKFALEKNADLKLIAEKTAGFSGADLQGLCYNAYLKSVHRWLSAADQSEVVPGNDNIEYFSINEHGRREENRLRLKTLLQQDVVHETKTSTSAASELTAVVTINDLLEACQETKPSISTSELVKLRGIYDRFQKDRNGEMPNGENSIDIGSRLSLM

fluorescein labeled Pex5 = molecular target: T1, fluorescein labeled Pex5; test: pull-down; MBP-Pex6/Pex1 or MBP-Pex15 1-327 on magnetic amylose resin with Pex5-FAM; same conditions as Figure 7B (350 nM Pex5-FAM, 1 h, 4 °C, 60 mM HEPES pH 7.6, 150 mM NaCl, 150 mM KCl, 10% glycerol, 0.05% Tween-20, 10 mM MgCl2, 0.5 mM EDTA, 5 mM ATP); maltose elution; Pex5 seen by its fluorescein
His-Pex6-FLAG = molecular target: T2, His-Pex6-FLAG; test: pull-down; 1 uM MBP-Pex15 1-327-FLAG-His on magnetic amylose resin with 0.5 uM Pex1-Strep/His-Pex6 hexamer, His-Pex1-FLAG, His-Pex6-FLAG or 5 uM His-Pex6 1-215; 1 h, 4 °C, 60 mM HEPES pH 7.6, 150 mM NaCl, 150 mM KCl, 10% glycerol, 0.05% Tween-20, 10 mM MgCl2, 0.5 mM EDTA, 5 mM ATP; maltose elution; SYPRO-Ruby or anti-His blot
[2] = molecular target: T4, Pex1-WB2/Pex6-WB2 mutant hexamer (Pex1-E798Q-Strep/His-Pex6-E832Q) (S. cerevisiae, UniProt P24004 1-1043; P33760 1-1030, E798Q | E832Q); test: pull-down; MBP-Pex15 1-309 or MBP-Pex15 1-253 with Pex1-WB2/Pex6-WB2; maltose elution, SDS-PAGE
T4 construct: Pex1, S. cerevisiae W303, Walker B D2 mutant; Pex6, S. cerevisiae W303, Walker B D2 mutant; also called Pex1-WB/Pex6-WB; ATPase-deficient Pex1/Pex6; source: E. coli BL21*, co-expressed, purified (Ni-NTA, Streptactin); copies: 3 + 3
T4 sequence (P24004 whole entry E798Q, one chain of several): as the sequence (P24004 whole entry, chain 1 of 2, one chain of several) above, with E798Q counted along it

Row | Kd [1] | Binder | other results
1 | 5.3 µM | Pex15 30-309 (domain or fragment, S. cerevisiae, UniProt Q08215 30-309, looked up, begins at E30 (primer 'Pex15 E30 forward', D1:p20); source: E. coli BL21*, purified (Ni-NTA, tag cleaved with PreScission protease, Superdex 200); not shown: His, C-terminal, cleaved) ESDESTKSVNDQRSEVFQECVNLFIKRDIKDCLEKMSEVGFIDITVFKSNPMILDLFVSACDIMPSFTKLGLTLQSEILNIFTLDTPQCIETRKIILGDLSKLLVINKFFRCCIKVIQFNLTDHTEQEEKTLELESIMSDFIFVYITKMRTTIDVVGLQELIEIFIFQVKVKLHHKKPSPNMYWALCKTLPKLSPTLKGLYLSKDVSIEDAILNSIDNKIQKDKAKSKGKQRGVKQKIHHFHEPMLHNSSEEQVKVEDAFNQRTSTDSRLQSTGTAPRKK | 
2 | 0.86 µM | Pex15 12-309 (domain or fragment, S. cerevisiae, UniProt Q08215 12-309, looked up, begins at M12 (primer 'Pex15 M12 forward', D1:p20); source: E. coli BL21*, purified (Ni-NTA, tag cleaved with PreScission protease, Superdex 200); not shown: His, C-terminal, cleaved) MHSLDSSLRDLLNDDLFIESDESTKSVNDQRSEVFQECVNLFIKRDIKDCLEKMSEVGFIDITVFKSNPMILDLFVSACDIMPSFTKLGLTLQSEILNIFTLDTPQCIETRKIILGDLSKLLVINKFFRCCIKVIQFNLTDHTEQEEKTLELESIMSDFIFVYITKMRTTIDVVGLQELIEIFIFQVKVKLHHKKPSPNMYWALCKTLPKLSPTLKGLYLSKDVSIEDAILNSIDNKIQKDKAKSKGKQRGVKQKIHHFHEPMLHNSSEEQVKVEDAFNQRTSTDSRLQSTGTAPRKK | 
3 | 5.6 µM | Pex15 43-309 (domain or fragment, S. cerevisiae, UniProt Q08215 43-309, looked up, begins at S43 (primer 'Pex15 S43 forward', D1:p20); source: E. coli BL21*, purified (Ni-NTA, tag cleaved with PreScission protease, Superdex 200); not shown: His, C-terminal, cleaved) SEVFQECVNLFIKRDIKDCLEKMSEVGFIDITVFKSNPMILDLFVSACDIMPSFTKLGLTLQSEILNIFTLDTPQCIETRKIILGDLSKLLVINKFFRCCIKVIQFNLTDHTEQEEKTLELESIMSDFIFVYITKMRTTIDVVGLQELIEIFIFQVKVKLHHKKPSPNMYWALCKTLPKLSPTLKGLYLSKDVSIEDAILNSIDNKIQKDKAKSKGKQRGVKQKIHHFHEPMLHNSSEEQVKVEDAFNQRTSTDSRLQSTGTAPRKK | 
4 |  | MBP-Pex15 1-327-FLAG-His (domain or fragment, S. cerevisiae, UniProt Q08215 1-327, looked up, Pex15, S. cerevisiae W303, cytosolic domain, residues 1-327; Held on magnetic amylose resin by its MBP; not shown: MBP, N-terminal, kept; FLAG, C-terminal, kept; His, C-terminal, kept) MAASEIMNNLPMHSLDSSLRDLLNDDLFIESDESTKSVNDQRSEVFQECVNLFIKRDIKDCLEKMSEVGFIDITVFKSNPMILDLFVSACDIMPSFTKLGLTLQSEILNIFTLDTPQCIETRKIILGDLSKLLVINKFFRCCIKVIQFNLTDHTEQEEKTLELESIMSDFIFVYITKMRTTIDVVGLQELIEIFIFQVKVKLHHKKPSPNMYWALCKTLPKLSPTLKGLYLSKDVSIEDAILNSIDNKIQKDKAKSKGKQRGVKQKIHHFHEPMLHNSSEEQVKVEDAFNQRTSTDSRLQSTGTAPRKKNNDITVLAGSFWAVLKHH | binding result (fluorescein labeled Pex5): binds; binding result (His-Pex6-FLAG): binds
5 | 8.7 µM | Pex15 1-309 L22A L23A (domain or fragment, S. cerevisiae, UniProt Q08215 1-309, looked up, also called Pex15 L22AL23A; source: E. coli BL21*, purified (Ni-NTA, tag cleaved with PreScission protease, Superdex 200); not shown: His, C-terminal, cleaved) MAASEIMNNLPMHSLDSSLRDAANDDLFIESDESTKSVNDQRSEVFQECVNLFIKRDIKDCLEKMSEVGFIDITVFKSNPMILDLFVSACDIMPSFTKLGLTLQSEILNIFTLDTPQCIETRKIILGDLSKLLVINKFFRCCIKVIQFNLTDHTEQEEKTLELESIMSDFIFVYITKMRTTIDVVGLQELIEIFIFQVKVKLHHKKPSPNMYWALCKTLPKLSPTLKGLYLSKDVSIEDAILNSIDNKIQKDKAKSKGKQRGVKQKIHHFHEPMLHNSSEEQVKVEDAFNQRTSTDSRLQSTGTAPRKK | 
6 |  | MBP-Pex15 1-309 (domain or fragment, S. cerevisiae, UniProt Q08215 1-309, looked up, not shown: MBP, N-terminal, kept) MAASEIMNNLPMHSLDSSLRDLLNDDLFIESDESTKSVNDQRSEVFQECVNLFIKRDIKDCLEKMSEVGFIDITVFKSNPMILDLFVSACDIMPSFTKLGLTLQSEILNIFTLDTPQCIETRKIILGDLSKLLVINKFFRCCIKVIQFNLTDHTEQEEKTLELESIMSDFIFVYITKMRTTIDVVGLQELIEIFIFQVKVKLHHKKPSPNMYWALCKTLPKLSPTLKGLYLSKDVSIEDAILNSIDNKIQKDKAKSKGKQRGVKQKIHHFHEPMLHNSSEEQVKVEDAFNQRTSTDSRLQSTGTAPRKK | binding result [2]: binds
7 |  | MBP-Pex15 1-253 (domain or fragment, S. cerevisiae, UniProt Q08215 1-253, looked up, not shown: MBP, N-terminal, kept) MAASEIMNNLPMHSLDSSLRDLLNDDLFIESDESTKSVNDQRSEVFQECVNLFIKRDIKDCLEKMSEVGFIDITVFKSNPMILDLFVSACDIMPSFTKLGLTLQSEILNIFTLDTPQCIETRKIILGDLSKLLVINKFFRCCIKVIQFNLTDHTEQEEKTLELESIMSDFIFVYITKMRTTIDVVGLQELIEIFIFQVKVKLHHKKPSPNMYWALCKTLPKLSPTLKGLYLSKDVSIEDAILNSIDNKIQKDK | binding result [2]: binds
